# Reference: patent US20190351049A1 (Regeneron, published 2019)
# Assays:
# [1] = target: MERS-CoV spike protein (EMC/2012), wt (MERS-CoV (isolate EMC/2012), UniProt K9N5Q8 18-1353); assay: cell-based or functional assay
# MERS-RBD-mFc = MERS-RBD-mFc (MERS-CoV (isolate EMC/2012), UniProt K9N5Q8 367-606); assay: Octet BLI, MERS.mFc captured on the sensor, then mAb-1 applied
binder,measurement,setting,value
"H1H15259P2 (antibody, V domains shown) VH: QVQLVESGGGVVQPGRSLRLSCAASGFTFSNYGIHWVRQAPGKGLEWVAGIYYDGSNKYYGDSVKGRFTISRDNSKNTLYLQMNSLRAEDTAVYYCARDRGNNHYYHNNPYYYYHGLDVWGQGTTVTVSS VL: not shown",IC50 against MERSpp,[1],0.0764 nM
same,IC50 against live virus (EMC2012),[1],1.63 nM
same,mAb-1 Binding (nm),MERS-RBD-mFc,0.42 nm
"H1H15249P2 (antibody, V domains shown) VH: QLQLQESGPGLVKPSETLSLTCTVSGGSISNNNYYWGWIRQPPGKGLDWIGSIYYSGNTYYNPSLKSRVTISVDTSKNQFSLKMSSVTATDTALYYCARQGADHNWVDPWGQGTLVTVSS VL: not shown",IC50 against MERSpp,[1],0.227 nM
same,IC50 against live virus (EMC2012),[1],12 nM
same,mAb-1 Binding (nm),MERS-RBD-mFc,0.4 nm
"H1H15264P2 (antibody, V domains shown) VH: QLQLQESGPGLVKPSETLSLTCSVSGGSINNNNYYWGWIRQPPGRGLEWIGSFFYSGPTYYNPSLRSRVTISVDTSKNQFSLKLNSVTAADTAIYYCARQDGNYYPLFDYWGQGTLVTVSS VL: not shown",IC50 against MERSpp,[1],0.134 nM
same,IC50 against live virus (EMC2012),[1],2.39 nM
same,mAb-1 Binding (nm),MERS-RBD-mFc,0.41 nm
"H1H15253P2 (antibody, V domains shown) VH: EVQLVESGGGLVQPGGSLRLSCVVSGFTSRNYAMSWVRQAPGKGLEWVSAISGSGGSTYYADSVKGRFTISRDNPKNTLYLQMNSLRAEDTALYYCAEDPGTSFDYWGQGTLVTVSS VL: not shown",IC50 against MERSpp,[1],0.151 nM
same,IC50 against live virus (EMC2012),[1],2.42 nM
same,mAb-1 Binding (nm),MERS-RBD-mFc,0.38 nm
"H1H15233P2 (antibody, V domains shown) VH: EVQLVESGGGLVQPGGSLRLSCAASGFSFSSYGMNWVRQAPGKGLEWVSAISGRGGNTYSADSVKGRFTISRDNSKNTLFLQMNGLRAEDSAFYYCAKVGTYSSSSPFDYWGQGTLVTVSS VL: not shown",IC50 against MERSpp,[1],0.0873 nM
same,IC50 against live virus (EMC2012),[1],1.37 nM
same,mAb-1 Binding (nm),MERS-RBD-mFc,0.46 nm
"H1H15231P2 (antibody, V domains shown) VH: QLQLQESGPGLVKPSETLSLTCTVSGGSISSNTYYWGWIRQPPGKGLEWIGTIYYTGNTYYKSSLKSRVTISVDTSRNQFSLKLTSVTAADTAVYYCARQFADLNYVDYWGQGTLVTVSS VL: not shown",IC50 against MERSpp,[1],0.102 nM
same,IC50 against live virus (EMC2012),[1],0.92 nM
same,mAb-1 Binding (nm),MERS-RBD-mFc,0.5 nm
"H1H15260P2 (antibody, V domains shown) VH: QVQLQESGPGLVKPSETLSLTCSVSGGSITSSYWSWIRQPPGRGLEWIGYVYYYGTTKYNPSLKSRVTTSMDTSKNQFSLKLNSVTAADTAVYYCARLELLFDYWGQGTLVTVSS VL: not shown",IC50 against MERSpp,[1],0.0643 nM
same,IC50 against live virus (EMC2012),[1],6.7 nM
same,mAb-1 Binding (nm),MERS-RBD-mFc,0.39 nm
"H1H15208P (antibody, V domains shown) VH: EVQLVESGGDLVQPGGSLRLSCTASGFTFSNYEMNWVRQAPEKGLDWVSFISSSGGAIYYADSVKGRFTISRDNAKNSLYLQMNSLRAEDSAIYFCARSDSGGNSRYWGQGTLVTVSS VL: DIQMTQSPSSVSASVGDRVTVTCRASQDISNWLVWYQQKPGKAPKFLIYAASSLQSGVPSRFSGSGSGTDFTLTISSLQPEDFATYYCQQANSFPPTFGGGTKVEIK",IC50 against MERSpp,[1],0.0827 nM
same,IC50 against live virus (EMC2012),[1],2.41 nM
same,mAb-1 Binding (nm),MERS-RBD-mFc,0.46 nm
"H1H15237P2 (antibody, V domains shown) VH: EVQLVESGGGLVQPGGSLRLSCAASGFTSNSYPMSWVRQAPGKGLEWVSGISGRGGNTYYADSVKGRFTISRDNSKNTLYLQMNSLRVEDTAVYYCAETGTAFDYWGQGTLVTVSS VL: not shown",IC50 against MERSpp,[1],0.066 nM
same,IC50 against live virus (EMC2012),[1],1.01 nM
same,mAb-1 Binding (nm),MERS-RBD-mFc,0.39 nm
"H1H15228P2 (antibody, V domains shown) VH: EVQLVESGGGLVQPGGSLRLSCAVFGFTFSGYAMSWVRQAPGKGLEWVSAISGGGGSTYYTDSVKGRFTISRDNSKNTLYLQMNSLRAEDTAVYYCASYWNNGMDVWGQGTTVTVSS VL: not shown",IC50 against MERSpp,[1],0.0975 nM
same,IC50 against live virus (EMC2012),[1],0.898 nM
same,mAb-1 Binding (nm),MERS-RBD-mFc,0.52 nm
"H1H15215P (antibody, V domains shown) VH: EVQLVESGGGLVQPGGSLRLSCAASGFTFSTYGMSWVRQAPGKGLEWVSTIIGSGYNTYYSDSVKGRFTMSRDNSKSTLYLQMNSLRAEDTAVYYCTKEGPIIGTTNWGQGTLVTVSS VL: not shown",IC50 against MERSpp,[1],0.192 nM
same,IC50 against live virus (EMC2012),[1],2.67 nM
same,mAb-1 Binding (nm),MERS-RBD-mFc,0.56 nm
